Measurements reported in IntAct's records for PubMed 32017888.

B1: RILP-like protein 2 (Homo sapiens), Q969X0 (parent)
chain: MEEPPVREEEEEEGEEDEERDEVGPEGALGKSPFQLTAEDVYDISYLLGRELMALGSDPRVTQLQFKVVRVLEMLEALVNEGSLALEELKMERDHLRKEVEGLRRQSPPASGEVNLGPNKMVVDLTDPNRPRFTLQELRDVLQERNKLKSQLLVVQEELQCYKSGLIPPREGPGGRREKDAVVTSAKNAGRNKEEKTIIKKLFFFRSGKQT
B2: Ras-related protein Rab-8A (Homo sapiens), P61006 (parent)
chain: MAKTYDYLFKLLLIGDSGVGKTCVLFRFSEDAFNSTFISTIGIDFKIRTIELDGKRIKLQIWDTAGQERFRTITTAYYRGAMGIMLVYDITNEKSFDNIRNWIRNIEEHASADVEKMILGNKCDVNDKRQVSKERGEKLALDYGIKFMETSAKANINVENAFFTLARDIKAKMDKKLEGNSPQGSNQGVKITPDQQKRSSFFRCVLL
partner: B1 chain

Variants of: B1
Conditions: with rab8a_human RAB8A

Variant	effect of a mutation on the interaction
P131R	decreasing interaction strength
P131A	decreasing interaction strength
F133A	disrupting interaction strength
K149A	decreasing interaction strength
R132K	disrupting interaction strength
R130A	decreasing interaction strength
R139A	with no effect
E157K	decreasing interaction strength
K149E	decreasing interaction strength
P131K	decreasing interaction strength
R132Q	disrupting interaction strength
K149Q	decreasing interaction strength
R139Q	with no effect

More lines, now with the values ahead:

effect of a mutation on the interaction	Variant
decreasing interaction strength	E157A
decreasing interaction strength	R139E
decreasing interaction strength	R130Q
decreasing interaction strength	P131C
disrupting interaction strength	R130E
decreasing interaction strength	R130K
decreasing interaction strength	E157Q
disrupting interaction strength	R132E
decreasing interaction strength	L135A

Variants of: B1
Conditions: with rab8a_human RAB8A, P61006

Variant	effect of a mutation on the interaction
R132A	disrupting interaction strength

Variants of: B2
Conditions: with ripl2_human RILPL2, Q969X0

Variant	effect of a mutation on the interaction
T4A	with no effect
D44A	disrupting interaction strength
D44K	disrupting interaction strength
D44N	disrupting interaction strength
K58A	with no effect
K58E	disrupting interaction strength
K58Q	disrupting interaction strength

Variants of: B2
Conditions: with ripl2_human RILPL2, Q969X0
Remark: another data set of the same source

Variant	effect of a mutation on the interaction
T22N	disrupting interaction strength
